Measured values as given in paper PMC8499627 (Antibody Therapeutics, 2021).

T1: SEQ13 peptide (HBsAg aa 113-135) (Hepatitis B virus, strain  …, UniProt P03141)
T1 construct: source: synthetic peptide, bought: Sangon Biotech
T1 chain: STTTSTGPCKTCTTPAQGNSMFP


Columns and labels:
Conditions in all cases: both partners purified
[1] = biological target: T1, SEQ13 peptide (HBsAg aa 113-135); assay: ELISA; indirect ELISA kits (Beijing Wantai) on HBsAg, CR-T3-SEQ13 or SEQ13 peptides; purified antibodies titrated, EC50s
[2] = biological target: T2, Recombinant HBsAg protein (hepatitis B surface antigen) (Hepatitis B virus, strain ; …, UniProt P03141); assay: SPR; Biacore 3000, 10°C; HBsAg immobilised (2 400 RU, sodium acetate pH 4.5); antibody 1.56-100 nM, 50 μL/min, 90 sec association, 600 sec dissociation
T2 construct: source: bought: Beijing Wantai Biological Pharmacy Enterprise

[3] = biological target: T2, Recombinant HBsAg protein (hepatitis B …); assay: ELISA; indirect ELISA kits (Beijing Wantai) on HBsAg, CR-T3-SEQ13 or SEQ13 peptides; purified antibodies titrated, EC50s

Binder | binding result [1] | Kd [2] [nM] | binding result [3]
hu1-23 (antibody, V domains shown, humanized VH: CDRs (IMGT) of C1-23 grafted on the most closely related human germline; humanized VK: CDRs (IMGT) of C1-23 grafted on the most closely related human germline; Human IgG1 CH and CK constant regions; also called humanized 1-23; Humanized antibody hu1-23; source: HEK-293F, transfected, purified (protein A)) VH: QVQLQESGPGLVKPSETLSLTCTVSGGSITSNFWSWIRQPPGKGLEWIGYISGSGTYTDYNPSLKSRVTISVDTSKNQFSLKLSSVTAADTAVYYCARSHDYGSNDYAFDFWGQGTTVTVSS VL: DIQMTQSPSSLSASVGDRVTITCRATQDISSSLNWYQQKPGKAPKLLIYYANRLQSGVPSRFSGSGSGTDFTLTISSLQPEDFATYYCQQYHSLPLTFGGGTKVEIK | binds | 1.06 | 
C1-23 (antibody, V domains shown, cynomolgus monkey VH of monkey #1; cynomolgus monkey VL of monkey #1; Monkey-human chimeric antibody, human IgG1 constant regions; parent of hu1-23; source: HEK-293F, transfected, purified (protein A)) VH: QVQLQESGPGLVKPSEILSVTCSVSGGSITSNFWSWIRQPPGKGLEWIGYISGSGTYTDYNPSLRSRVTLSVDTSKNQLSLKLSSVTAADTAVYYCARSHDYGSNDYAFDFWGQGLRVTVSS VL: EIVMTQSPSSLSASVGDRVTITCRATQDISSSLNWYQQKPGKAPQLLIYYANRLESGVPSRFRGSGSGTEFTLTISSLQPEDFTTYYCQQYHSLPLTFGGGTKVEIK | binds |  | binds
C3-13 (antibody, V domains shown, cynomolgus monkey VH of monkey #3; cynomolgus monkey VL of monkey #3; Monkey-human chimeric antibody, human IgG1 constant regions; source: HEK-293F, transfected, purified (protein A)) VH: QVQLQESGPRLVKSSETLPLTCAVSGASNSSNYWSWIRQPPGKGLEWIGRIYGNSGSTDYNPSLKSRVSISTDTSKNQFSLKLSSVTAADTAVYFCARGSVYTYSWGQGVLVTVSS VL: DIQMSQSPDSLAVSLGERVTINCKSSQSLLYSSNNKNYLAWYQQKPGQAPKLLFYWASTRESGVPNRFSGSGSGTDFTLTIRGLQAEDVAVYYCQQHYTTPLTFGQGTKVEIK | binds |  | binds
